From patent publication US20250230248A1

Legend:
[1] = molecular target: recombinant human CD64 (human) (UniProt P12314)
[2] = molecular target: recombinant human CD32a (human) (UniProt P12318)
[3] = molecular target: recombinant human CD16a (human) (UniProt P08637)
human C1q (human) = human C1q (human) (UniProt P02745)
human C1q (human), sequence (P02745 23-245 limits assumed, chain 1 of 3): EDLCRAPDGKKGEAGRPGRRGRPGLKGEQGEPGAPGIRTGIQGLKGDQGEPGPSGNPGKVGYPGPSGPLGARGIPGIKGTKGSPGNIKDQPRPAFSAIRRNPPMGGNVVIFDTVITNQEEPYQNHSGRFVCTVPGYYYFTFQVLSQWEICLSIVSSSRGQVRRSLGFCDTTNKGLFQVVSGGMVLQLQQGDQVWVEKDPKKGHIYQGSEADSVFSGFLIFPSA
human C1q (human), sequence (P02746 28-253 limits assumed, chain 2 of 3, further chain): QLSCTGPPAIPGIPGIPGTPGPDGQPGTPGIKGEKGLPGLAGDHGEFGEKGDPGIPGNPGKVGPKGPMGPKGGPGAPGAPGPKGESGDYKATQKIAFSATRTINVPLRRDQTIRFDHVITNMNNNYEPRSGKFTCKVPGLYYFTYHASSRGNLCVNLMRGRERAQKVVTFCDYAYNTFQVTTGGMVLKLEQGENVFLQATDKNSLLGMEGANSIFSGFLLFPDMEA
human C1q (human), sequence (P02747 29-245 limits assumed, chain 3 of 3, further chain): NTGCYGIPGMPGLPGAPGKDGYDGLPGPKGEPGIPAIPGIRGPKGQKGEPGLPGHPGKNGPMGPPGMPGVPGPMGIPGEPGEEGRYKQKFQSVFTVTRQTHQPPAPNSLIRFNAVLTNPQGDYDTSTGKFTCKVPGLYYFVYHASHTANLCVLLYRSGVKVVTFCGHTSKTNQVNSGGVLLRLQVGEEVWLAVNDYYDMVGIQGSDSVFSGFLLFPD

recombinant human CD64 (human), sequence (P12314 16-288 limits assumed): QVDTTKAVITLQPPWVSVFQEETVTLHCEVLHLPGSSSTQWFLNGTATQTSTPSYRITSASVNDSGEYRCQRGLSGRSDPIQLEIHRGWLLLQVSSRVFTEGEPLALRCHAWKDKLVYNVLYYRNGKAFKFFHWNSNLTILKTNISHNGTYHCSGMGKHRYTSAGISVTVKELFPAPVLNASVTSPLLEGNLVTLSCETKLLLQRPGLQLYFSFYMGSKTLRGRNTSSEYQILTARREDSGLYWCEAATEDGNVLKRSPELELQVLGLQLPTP
recombinant human CD16a (human), sequence (P08637 17-208 limits assumed): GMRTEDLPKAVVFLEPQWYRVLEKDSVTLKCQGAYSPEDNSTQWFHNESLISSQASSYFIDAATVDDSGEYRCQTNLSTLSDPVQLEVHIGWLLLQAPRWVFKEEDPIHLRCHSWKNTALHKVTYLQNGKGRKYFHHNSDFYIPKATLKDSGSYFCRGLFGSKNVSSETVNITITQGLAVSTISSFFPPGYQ
recombinant human CD32a (human), sequence (P12318 34-217): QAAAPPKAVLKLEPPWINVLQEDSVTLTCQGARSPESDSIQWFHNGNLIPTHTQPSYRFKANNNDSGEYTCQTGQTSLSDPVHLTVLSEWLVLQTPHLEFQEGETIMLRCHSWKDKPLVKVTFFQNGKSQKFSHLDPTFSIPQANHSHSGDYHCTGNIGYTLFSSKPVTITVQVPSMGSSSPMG

isotype mAb with human IgG1 (antibody)
EC50 [1]: 0.12 nM | EC50 [2]: 14 nM | EC50 [3]: 3.7 nM | EC50 (human C1q (human)): 14.1 nM
